# Assays:
# Assay in all cases: EuLISA
# [1] = target: rVλ6Wil fibrils
# [2] = target: Per125 wtATTR extract (human) (UniProt P02766)
# [3] = target: KEN hATTR extract (human) (UniProt P02766)
# [4] = target: TAL ALκ liver extract
# [5] = target: SHI ALλ liver extract
Substance,EC50 [1],LogEC50 [1],Max [1],LogEC50 [2],Max [2],LogEC50 [3],Max [3],LogEC50 [4],Max [4],LogEC50 [5],Max [5]
hIgG1 (antibody),1280 nM,5.89 -log(M),39.3,7.92 -log(M),8.38,9.06 -log(M),-0.8,3 -log(M),2220,7.88 -log(M),2.5
m11-1F4 (antibody),,,,,,2.39 -log(M),294000,,,,
chimeric antibody c11-1F4,,,,,,-1.36 -log(M),19700,,,,
